Laboratory results taken from patent US20150299281A1 (ZEALAND PHARMA A S, published 2015).
Numbered stars: 1 amine (or outer) side, 2 acyl side, 3 side chain; on linkers, the order of the positions; unused ones are H or OH. Square brackets hold non-standard residues; d marks the D form. Side chains are listed from the residue outwards. * marks the point of attachment. γGlu = O=C(O)[C@H](CCC(=O)[*:2])N[*:1]; Palmitoyl = CCCCCCCCCCCCCCCC(=O)*; Aib = CC(C)(N)C(=O)O

Legend:
human GIP receptor = molecular target: T1, human GIP receptor (human, UniProt P48546 22-466); assay: cell-based or functional assay
T1 sequence (looked up): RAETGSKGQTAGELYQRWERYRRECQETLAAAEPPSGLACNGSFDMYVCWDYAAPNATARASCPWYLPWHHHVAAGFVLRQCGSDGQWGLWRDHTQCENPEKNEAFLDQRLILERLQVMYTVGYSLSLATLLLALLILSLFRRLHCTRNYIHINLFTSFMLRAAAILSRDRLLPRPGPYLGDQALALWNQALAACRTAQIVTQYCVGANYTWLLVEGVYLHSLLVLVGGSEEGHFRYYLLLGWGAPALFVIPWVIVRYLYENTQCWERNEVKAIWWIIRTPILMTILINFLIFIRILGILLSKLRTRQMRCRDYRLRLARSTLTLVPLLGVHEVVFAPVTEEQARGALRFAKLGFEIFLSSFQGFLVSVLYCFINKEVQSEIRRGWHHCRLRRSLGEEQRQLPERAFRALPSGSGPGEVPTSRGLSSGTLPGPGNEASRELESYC

human GLP-1 receptor = human GLP-1 receptor (human, UniProt P43220 24-463); assay: cell-based or functional assay

Binder	EC50, cAMP induction in HEK293 cells expressing human GIP R (human GIP receptor) [nM]	EC50, cAMP induction in HEK293 cells expressing human GLP-1 R (human GLP-1 receptor) [nM]
H-Y[Aib]EGTFTSDYSIYLESKAAHDFVEWLLSA-NH2 (SMILES CC[C@H](C)[C@H](NC(=O)[C@H](CO)NC(=O)[C@H](Cc1ccc(O)cc1)NC(=O)[C@H](CC(=O)O)NC(=O)[C@H](CO)NC(=O)[C@@H](NC(=O)[C@H](Cc1ccccc1)NC(=O)[C@@H](NC(=O)CNC(=O)[C@H](CCC(=O)O)NC(=O)C(C)(C)NC(=O)[C@@H](N)Cc1ccc(O)cc1)[C@@H](C)O)[C@@H](C)O)C(=O)N[C@@H](Cc1ccc(O)cc1)C(=O)N[C@@H](CC(C)C)C(=O)N[C@@H](CCC(=O)O)C(=O)N[C@@H](CO)C(=O)N[C@@H](CCCCN)C(=O)N[C@@H](C)C(=O)N[C@@H](C)C(=O)N[C@@H](Cc1c[nH]cn1)C(=O)N[C@@H](CC(=O)O)C(=O)N[C@@H](Cc1ccccc1)C(=O)N[C@H](C(=O)N[C@@H](CCC(=O)O)C(=O)N[C@@H](Cc1c[nH]c2ccccc12)C(=O)N[C@@H](CC(C)C)C(=O)N[C@@H](CC(C)C)C(=O)N[C@@H](CO)C(=O)N[C@@H](C)C(N)=O)C(C)C) [Compound 41]	0.013	0.011
H-Y[Aib]EGTFTSDYSIYLEKKAQKEFVEWLLSA-NH2 (SMILES CC[C@H](C)[C@H](NC(=O)[C@H](CO)NC(=O)[C@H](Cc1ccc(O)cc1)NC(=O)[C@H](CC(=O)O)NC(=O)[C@H](CO)NC(=O)[C@@H](NC(=O)[C@H](Cc1ccccc1)NC(=O)[C@@H](NC(=O)CNC(=O)[C@H](CCC(=O)O)NC(=O)C(C)(C)NC(=O)[C@@H](N)Cc1ccc(O)cc1)[C@@H](C)O)[C@@H](C)O)C(=O)N[C@@H](Cc1ccc(O)cc1)C(=O)N[C@@H](CC(C)C)C(=O)N[C@@H](CCC(=O)O)C(=O)N[C@@H](CCCCN)C(=O)N[C@@H](CCCCN)C(=O)N[C@@H](C)C(=O)N[C@@H](CCC(N)=O)C(=O)N[C@@H](CCCCN)C(=O)N[C@@H](CCC(=O)O)C(=O)N[C@@H](Cc1ccccc1)C(=O)N[C@H](C(=O)N[C@@H](CCC(=O)O)C(=O)N[C@@H](Cc1c[nH]c2ccccc12)C(=O)N[C@@H](CC(C)C)C(=O)N[C@@H](CC(C)C)C(=O)N[C@@H](CO)C(=O)N[C@@H](C)C(N)=O)C(C)C) [Compound 39]	0.0083	0.011
H-Y[Aib]EGTFTSDYSIYLEKKAAKDFVEWLLSA-NH2 (SMILES CC[C@H](C)[C@H](NC(=O)[C@H](CO)NC(=O)[C@H](Cc1ccc(O)cc1)NC(=O)[C@H](CC(=O)O)NC(=O)[C@H](CO)NC(=O)[C@@H](NC(=O)[C@H](Cc1ccccc1)NC(=O)[C@@H](NC(=O)CNC(=O)[C@H](CCC(=O)O)NC(=O)C(C)(C)NC(=O)[C@@H](N)Cc1ccc(O)cc1)[C@@H](C)O)[C@@H](C)O)C(=O)N[C@@H](Cc1ccc(O)cc1)C(=O)N[C@@H](CC(C)C)C(=O)N[C@@H](CCC(=O)O)C(=O)N[C@@H](CCCCN)C(=O)N[C@@H](CCCCN)C(=O)N[C@@H](C)C(=O)N[C@@H](C)C(=O)N[C@@H](CCCCN)C(=O)N[C@@H](CC(=O)O)C(=O)N[C@@H](Cc1ccccc1)C(=O)N[C@H](C(=O)N[C@@H](CCC(=O)O)C(=O)N[C@@H](Cc1c[nH]c2ccccc12)C(=O)N[C@@H](CC(C)C)C(=O)N[C@@H](CC(C)C)C(=O)N[C@@H](CO)C(=O)N[C@@H](C)C(N)=O)C(C)C) [Compound 37]	0.0097	0.018
H-Y[Aib]EGTFISDYSIYLEKIAAKEFVNWLLAQK-NH2 [Compound 4]	0.022	2.6
H-Y[Aib]EGTFTSDYSIYLEKKAAHDFVEWLLSA-NH2 (SMILES CC[C@H](C)[C@H](NC(=O)[C@H](CO)NC(=O)[C@H](Cc1ccc(O)cc1)NC(=O)[C@H](CC(=O)O)NC(=O)[C@H](CO)NC(=O)[C@@H](NC(=O)[C@H](Cc1ccccc1)NC(=O)[C@@H](NC(=O)CNC(=O)[C@H](CCC(=O)O)NC(=O)C(C)(C)NC(=O)[C@@H](N)Cc1ccc(O)cc1)[C@@H](C)O)[C@@H](C)O)C(=O)N[C@@H](Cc1ccc(O)cc1)C(=O)N[C@@H](CC(C)C)C(=O)N[C@@H](CCC(=O)O)C(=O)N[C@@H](CCCCN)C(=O)N[C@@H](CCCCN)C(=O)N[C@@H](C)C(=O)N[C@@H](C)C(=O)N[C@@H](Cc1c[nH]cn1)C(=O)N[C@@H](CC(=O)O)C(=O)N[C@@H](Cc1ccccc1)C(=O)N[C@H](C(=O)N[C@@H](CCC(=O)O)C(=O)N[C@@H](Cc1c[nH]c2ccccc12)C(=O)N[C@@H](CC(C)C)C(=O)N[C@@H](CC(C)C)C(=O)N[C@@H](CO)C(=O)N[C@@H](C)C(N)=O)C(C)C) [Compound 38]	0.007	0.018
H-Y[Aib]EGTFTSDYSIYLDKK([γGlu-Palmitoyl])AQRAFVNWLLA[Aib]KPSSGAPPPS-NH2 (SMILES CCCCCCCCCCCCCCCC(=O)N[C@@H](CCC(=O)NCCCC[C@H](NC(=O)[C@H](CCCCN)NC(=O)[C@H](CC(=O)O)NC(=O)[C@H](CC(C)C)NC(=O)[C@H](Cc1ccc(O)cc1)NC(=O)[C@@H](NC(=O)[C@H](CO)NC(=O)[C@H](Cc1ccc(O)cc1)NC(=O)[C@H](CC(=O)O)NC(=O)[C@H](CO)NC(=O)[C@@H](NC(=O)[C@H](Cc1ccccc1)NC(=O)[C@@H](NC(=O)CNC(=O)[C@H](CCC(=O)O)NC(=O)C(C)(C)NC(=O)[C@@H](N)Cc1ccc(O)cc1)[C@@H](C)O)[C@@H](C)O)[C@@H](C)CC)C(=O)N[C@@H](C)C(=O)N[C@@H](CCC(N)=O)C(=O)N[C@@H](CCCNC(=N)N)C(=O)N[C@@H](C)C(=O)N[C@@H](Cc1ccccc1)C(=O)N[C@H](C(=O)N[C@@H](CC(N)=O)C(=O)N[C@@H](Cc1c[nH]c2ccccc12)C(=O)N[C@@H](CC(C)C)C(=O)N[C@@H](CC(C)C)C(=O)N[C@@H](C)C(=O)NC(C)(C)C(=O)N[C@@H](CCCCN)C(=O)N1CCC[C@H]1C(=O)N[C@@H](CO)C(=O)N[C@@H](CO)C(=O)NCC(=O)N[C@@H](C)C(=O)N1CCC[C@H]1C(=O)N1CCC[C@H]1C(=O)N1CCC[C@H]1C(=O)N[C@@H](CO)C(N)=O)C(C)C)C(=O)O) [Compound 35]	0.028	0.022
H-Y[Aib]EGTFTSDYSIYLDEKAAKDFVEWLLSA-NH2 (SMILES CC[C@H](C)[C@H](NC(=O)[C@H](CO)NC(=O)[C@H](Cc1ccc(O)cc1)NC(=O)[C@H](CC(=O)O)NC(=O)[C@H](CO)NC(=O)[C@@H](NC(=O)[C@H](Cc1ccccc1)NC(=O)[C@@H](NC(=O)CNC(=O)[C@H](CCC(=O)O)NC(=O)C(C)(C)NC(=O)[C@@H](N)Cc1ccc(O)cc1)[C@@H](C)O)[C@@H](C)O)C(=O)N[C@@H](Cc1ccc(O)cc1)C(=O)N[C@@H](CC(C)C)C(=O)N[C@@H](CC(=O)O)C(=O)N[C@@H](CCC(=O)O)C(=O)N[C@@H](CCCCN)C(=O)N[C@@H](C)C(=O)N[C@@H](C)C(=O)N[C@@H](CCCCN)C(=O)N[C@@H](CC(=O)O)C(=O)N[C@@H](Cc1ccccc1)C(=O)N[C@H](C(=O)N[C@@H](CCC(=O)O)C(=O)N[C@@H](Cc1c[nH]c2ccccc12)C(=O)N[C@@H](CC(C)C)C(=O)N[C@@H](CC(C)C)C(=O)N[C@@H](CO)C(=O)N[C@@H](C)C(N)=O)C(C)C) [Compound 40]	0.011	0.022
H-Y[Aib]EGTFTSDYSIYLDEK([γGlu-Palmitoyl])AAKEFIEWLESA-NH2 (SMILES CCCCCCCCCCCCCCCC(=O)N[C@@H](CCC(=O)NCCCC[C@H](NC(=O)[C@H](CCC(=O)O)NC(=O)[C@H](CC(=O)O)NC(=O)[C@H](CC(C)C)NC(=O)[C@H](Cc1ccc(O)cc1)NC(=O)[C@@H](NC(=O)[C@H](CO)NC(=O)[C@H](Cc1ccc(O)cc1)NC(=O)[C@H](CC(=O)O)NC(=O)[C@H](CO)NC(=O)[C@@H](NC(=O)[C@H](Cc1ccccc1)NC(=O)[C@@H](NC(=O)CNC(=O)[C@H](CCC(=O)O)NC(=O)C(C)(C)NC(=O)[C@@H](N)Cc1ccc(O)cc1)[C@@H](C)O)[C@@H](C)O)[C@@H](C)CC)C(=O)N[C@@H](C)C(=O)N[C@@H](C)C(=O)N[C@@H](CCCCN)C(=O)N[C@@H](CCC(=O)O)C(=O)N[C@@H](Cc1ccccc1)C(=O)N[C@H](C(=O)N[C@@H](CCC(=O)O)C(=O)N[C@@H](Cc1c[nH]c2ccccc12)C(=O)N[C@@H](CC(C)C)C(=O)N[C@@H](CCC(=O)O)C(=O)N[C@@H](CO)C(=O)N[C@@H](C)C(N)=O)[C@@H](C)CC)C(=O)O) [Compound 34]	0.045	0.031
